Experimental findings from patent publication US20150152406A1 (NBE THERAPEUTICS, published 2015) are described below.

The assay has as its target T1, 6xHis-tagged, recombinant human CD30 (Sino Biological Inc., order #10777-H08H) (human, UniProt P28908 19-379).
T1 construct: Bought soluble reagent; It was detected with biotinylated anti-His-tag antibody and streptavidin-PE; also called CD30 antigen; CD30-6xHis
T1 sequence: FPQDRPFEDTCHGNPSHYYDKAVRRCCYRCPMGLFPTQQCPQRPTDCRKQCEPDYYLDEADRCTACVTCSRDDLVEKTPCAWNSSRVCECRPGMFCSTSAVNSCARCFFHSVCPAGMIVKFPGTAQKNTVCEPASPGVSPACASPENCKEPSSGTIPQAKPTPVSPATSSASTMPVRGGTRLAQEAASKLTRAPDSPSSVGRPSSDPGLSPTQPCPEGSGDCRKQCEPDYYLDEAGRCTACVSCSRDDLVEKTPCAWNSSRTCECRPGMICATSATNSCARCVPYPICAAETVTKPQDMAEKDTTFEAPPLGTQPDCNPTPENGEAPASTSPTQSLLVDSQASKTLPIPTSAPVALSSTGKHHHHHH
The assay is described as follows: flow cytometry; 63-12 cells displaying anti-CD19 IgG as background, stained with His-tagged CD30 / anti-His-biotin / strep-PE. (In flow cytometry, cells or beads pass a laser one at a time.)

Protocol: After the final FACS staining, the cells were again washed twice in ice-cold PBS, 2% FCS, and then resuspended in 1.0 ml PBS, 2% FCS, after which the cells were subjected to FACS analysis and cell sorting of Ig-kappaLC/CD30 positive cells (see FIG. 13).

B1: humanized anti-human CD19 antibody hBU12, membrane bound human IgG1 on the surface of 63-12 proB cells (antibody, V domains shown)
VH: QVQLQESGPGLVKPSQTLSLTCTVSGGSISTSGMGVGWIRQHPGKGLEWIGHIWWDDDKRYNPALKSRVTISVDTSKNQFSLKLSSVTAADTAVYYCARMELWSYYFDYWGQGTLVTVSS
VL: EIVLTQSPATLSLSPGERATLSCSASSSVSYMHWYQQKPGQAPRLLIYDTSKLASGIPARFSGSGSGTDFTLTISSLEPEDVAVYYCFQGSVYPFTFGQGTKLEIK
notes: also called anti-CD19 mAb hBU12; anti-CD19 mAb
Consider B1, for which the binding result is on record as “no binding (tested: 0.1 µg CD30 in 1 ml)”.
